According to the supplement of paper PMC12764529:
± gives the half width of the 95% confidence interval.

Experiments:
[1] = folding stability dG unfold (combined trypsin and chymotrypsin); higher = more stable
How it was run: (§1)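 Unfolding free energy was derived, per protease or combined, against a sequence-predicted unfolded-state K50 and a shared folded-state K50, starting from K50 inferred by Bayesian fitting of sequencing counts. Digestion with trypsin and chymotrypsin was carried out on designed mini-proteins under 80 residues without cysteine in a PA-tagged cDNA display construct. Only designs with AlphaFold2 dimer inter-PAE above 15 were kept.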

[2] = folding stability dG unfold from trypsin proteolysis; higher = more stable
How it was run: as §1

[3] = folding stability dG unfold from chymotrypsin proteolysis; higher = more stable
How it was run: as §1

Sequence	folding stability dG unfold [1] [kcal/mol]	folding stability dG unfold [2] [kcal/mol]	folding stability dG unfold [3] [kcal/mol]
SAGGGPDLVIDVEILEIRVEPEPGKTATIRVRALIYNPETDTWTLAEFEIRIPDDGSVEVRFRVEPLRSAGG [r13_917_TrMRF]	3.76 ± 0.074	3.08 ± 0.082	4.13 ± 0.05
MYVVRAKFKIKGEDGSEFEAETVILVEETPEEAKEKVEEKAREIAEELGLSLENITEIEVEVLSLDEELLPS [r1_159_TrMRF]	2.12 ± 0.27	1.44 ± 0.1	2.16 ± 0.15
SAGFKIKIEPIEVLPNGTVKYKAIIETEKEKYEVEAFYNPKTGLIYIYSPKTGSIMKINPKTGKIILIPSAG [r14_260_TrMRF]	4.03 ± 0.2	3.44 ± 0.15	4.18 ± 0.11
SAGGSAGGSAGPVVISIPETNTLVVLAPLPDDRVLADVFQFDPTTPEPTVFTVPAENISFSAGGSAGGSAGG [r11_285_TrMRF]	0.565 ± 0.099	0.76 ± 0.024	0.335 ± 0.13
SAGGMVTVSTPLGLGYSEEIKARMEEYVKAGDPEAAKELAQEYIDAKYPPKWPVEISFHENPAISKKSAGGS [r8_48_JUSTAS]	-0.396 ± 0.36	-0.769 ± 0.38	-0.209 ± 0.18
SAGGMPVPVLIVVPEDKIEEIIKKIREETDEDVEIKAFKLPDGRVLLLITFNDPQLAEDFLKKFGFGSAGGS [r16_172_TrMRF]	5.13 ± 0.17	4.27 ± 0.23	5.17 ± 0.14
SAGGSAGGGRYLVLIEFENGFPLAYVFPSPEDVVEHTRLLEERLGYPIKRIEVYKIDPNGKAYASAGGSAGG [r6_162_TrMRF]	2.53 ± 0.086	2.41 ± 0.053	2.42 ± 0.12
SAGELTAEEIAERLRKLLEELGIEEVEVEVEEVEVEEEEEPVEEEEEEELSEEERERLRRERLEEEGLLSAG [r5_9_TrROS_Hall]	1.92 ± 0.12	1.59 ± 0.073	2.1 ± 0.037
SAGGKPKEITLVVKVGETVEFPEGAEVTYDKETGTVTIKLPDGRTIRVEVTYNPDTDYLVVKITVEPSAGGS [r16_122_TrROS_Hall]	2.34 ± 0.13	2.07 ± 0.074	2.41 ± 0.083
SNWITLKHTIKHPGREIKIEITAQPNPGGPYWIQVNIEVRDPNGEKEEVEITVPFRGMSIEDFLKNAADASA [r9_217_TrROS]	3.78 ± 0.29	2.85 ± 0.12	4.46 ± 0.062
SAGGSAGGSAGGSPVIIPDKGYLVVELEEEGLLVVYPLYPDGEIGPAFVRPVHPDVPVLSAGGSAGGSAGGS [r4_409_TrMRF]	1.92 ± 0.072	2.61 ± 0.062	0.982 ± 0.039
SAGGSAGVSTSKGSSVTTLKIDYKDDVVIKYSYNPSTGTVYTTVIDPETGNPVTVETYSVSPDVPLSAGGSA [r15_425_JUSTAS]	1.02 ± 0.037	0.649 ± 0.014	1.26 ± 0.084
SAGGSAGGSAKAVIFFEGASIEDVVEAVKARPEEEVLVVFPDGRVLLLTKDDVVVVVPAPFSAGGSAGGSAG [r3_269_TrMRF]	1.23 ± 0.093	1.19 ± 0.052	1.22 ± 0.11
SAGGSLELPEGAKVEVEVEIEEVDDDTVKIKVKVKFTFINEDGEPETFEAEFEFEIPKEEAEELLGSAGGSA [r2_226_TrMRF]	3.32 ± 0.13	1.88 ± 0.17	3.66 ± 0.11
SAGGSAGGSSQEREFTLPDPDGKDIKITMHQNPDGRPRAEIENKDGEPVKEFDSPDDIEDLLKSAGGSAGGS [r20_202_TrROS]	-0.0562 ± 0.22	-0.273 ± 0.2	0.168 ± 0.06
SAGGSAGGPEIKVLEVRKLPDGSFEFIVEVPPGDAEKIKSGTVVKIKFGDKEYDVTVEVIPTEGSAGGSAGG [r6_372_TrMRF]	2.24 ± 0.045	1.73 ± 0.038	2.52 ± 0.051
SAGGSPEVKVLLFYDPATGERVVVVVTYDPATGEKKVLVFVESRPELVELVKKLLEDLGYEVEVVPSAGGSA [r2_30_TrMRF]	3.63 ± 0.11	3.39 ± 0.19	3.82 ± 0.16
